Measurements taken from the supplement of paper PMC9112550, “Optimization of the antimicrobial peptide Bac7 by deep mutational scanning” (BMC Biology, 2022).

Tested on: Escherichia coli TOP10
Assay: shrunken log2 fold change of peptide-encoding DNA abundance (4.5 h post-induction vs induction); higher = less antimicrobial activity (less host growth inhibition)
Conditions: time post-induction: 4.5 h; library: site-saturation at positions 5, 18, 19, 20
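Note: peptides expressed intracellularly from a pBAD plasmid library in pooled LB shake-flask culture, induced with 0.3% L-arabinose, DNA abundance read by NGS, three biological replicates, DESeq2 with apeglm shrinkage.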

Sequence	shrunken log2 fold change
RRIRPRPPRLPRPRPRPKCDPRP	-0.314
RRIRNRPPRLPRPRPRPHCRPRP	0.00914
RRIRPRPPRLPRPRPRPWPFPRP	0.108
RRIRTRPPRLPRPRPRPKKTPRP	0.0546
RRIRERPPRLPRPRPRPWVFPRP	-0.0105
RRIRDRPPRLPRPRPRPRTHPRP	-0.188
RRIRSRPPRLPRPRPRPFFTPRP	-0.00429
RRIRERPPRLPRPRPRPHQKPRP	-0.0694
RRIRKRPPRLPRPRPRPTEQPRP	2.01
RRIRERPPRLPRPRPRPSPDPRP	-0.185
RRIRWRPPRLPRPRPRPIYWPRP	-0.208
RRIRYRPPRLPRPRPRPCFLPRP	-1
RRIRCRPPRLPRPRPRPHRWPRP	0.317
RRIRKRPPRLPRPRPRPTPTPRP	0.831
RRIRFRPPRLPRPRPRPLLHPRP	-0.247
RRIRYRPPRLPRPRPRPKAAPRP	0.067
RRIRGRPPRLPRPRPRPHGGPRP	0.631
RRIRIRPPRLPRPRPRPHFSPRP	-0.181
RRIRERPPRLPRPRPRPCNSPRP	0.00408
RRIRHRPPRLPRPRPRPTSQPRP	-0.00232
RRIRPRPPRLPRPRPRPTMNPRP	-0.0529
RRIRVRPPRLPRPRPRPHMCPRP	-0.301
RRIRPRPPRLPRPRPRPWWSPRP	0.361
RRIRWRPPRLPRPRPRPLWHPRP	-0.0484
RRIRIRPPRLPRPRPRPCNNPRP	-0.457

Sequence	shrunken log2 fold change
RRIRTRPPRLPRPRPRPCEHPRP	0.00673
RRIRCRPPRLPRPRPRPQNKPRP	-0.526
RRIRWRPPRLPRPRPRPHACPRP	0.171
RRIRFRPPRLPRPRPRPLATPRP	-0.00506
RRIRERPPRLPRPRPRPAKYPRP	-0.274
RRIRLRPPRLPRPRPRPWDPPRP	-0.125
RRIRVRPPRLPRPRPRPPEWPRP	-0.00654
RRIRLRPPRLPRPRPRPDPPPRP	0.337
RRIRPRPPRLPRPRPRPEPHPRP	0.298
RRIRLRPPRLPRPRPRPVSRPRP	0.0317
RRIRKRPPRLPRPRPRPGREPRP	0.913
RRIRGRPPRLPRPRPRPENFPRP	0.0598
RRIRARPPRLPRPRPRPPFEPRP	0.504
RRIRTRPPRLPRPRPRPQFMPRP	0.0325
RRIRIRPPRLPRPRPRPEIDPRP	-0.157
RRIRCRPPRLPRPRPRPYMEPRP	-0.428
RRIRMRPPRLPRPRPRPDMYPRP	-0.138
RRIRCRPPRLPRPRPRPSHKPRP	-0.641
RRIRFRPPRLPRPRPRPSAQPRP	0.24
RRIRQRPPRLPRPRPRPPEPPRP	0.834
RRIRERPPRLPRPRPRPRGGPRP	0.376
RRIRVRPPRLPRPRPRPGMRPRP	0.565
RRIRHRPPRLPRPRPRPPQWPRP	0.0657
RRIRVRPPRLPRPRPRPMIKPRP	-0.156
RRIRSRPPRLPRPRPRPTGYPRP	0.0189

Sequence	shrunken log2 fold change
RRIRRRPPRLPRPRPRPQHCPRP	-0.0448
RRIRNRPPRLPRPRPRPADPPRP	-0.0809
RRIRHRPPRLPRPRPRPLLRPRP	0.0548
RRIRARPPRLPRPRPRPVDQPRP	0.607
RRIRPRPPRLPRPRPRPSCQPRP	-0.733
RRIRSRPPRLPRPRPRPMYHPRP	-0.762
RRIRHRPPRLPRPRPRPMLEPRP	0.0721
RRIRMRPPRLPRPRPRPDVHPRP	0.109
RRIRPRPPRLPRPRPRPWFTPRP	-0.0465
RRIRLRPPRLPRPRPRPIAMPRP	-0.0743
RRIRPRPPRLPRPRPRPEVHPRP	0.551
RRIRVRPPRLPRPRPRPPMRPRP	1.24
RRIRHRPPRLPRPRPRPGPEPRP	1.6
RRIRERPPRLPRPRPRPQLMPRP	-0.0865
RRIRVRPPRLPRPRPRPMYIPRP	-0.0844
RRIRTRPPRLPRPRPRPMNIPRP	-0.259
RRIRHRPPRLPRPRPRPTVNPRP	-0.144
RRIRKRPPRLPRPRPRPVNYPRP	-0.0716
RRIRMRPPRLPRPRPRPWMFPRP	0.00324
RRIRERPPRLPRPRPRPQYTPRP	-1.16
RRIRWRPPRLPRPRPRPNHIPRP	-0.569
RRIRPRPPRLPRPRPRPTIVPRP	0.121
RRIRSRPPRLPRPRPRPCAQPRP	0.00151
RRIRWRPPRLPRPRPRPKYWPRP	0.0306
RRIRRRPPRLPRPRPRPHSNPRP	-0.281

Sequence	shrunken log2 fold change
RRIRTRPPRLPRPRPRPYLFPRP	-0.71
RRIRTRPPRLPRPRPRPLKSPRP	-0.0242
RRIRQRPPRLPRPRPRPYLLPRP	-0.0483
RRIRQRPPRLPRPRPRPMADPRP	0.207
RRIRTRPPRLPRPRPRPNHVPRP	-0.0538
RRIRFRPPRLPRPRPRPMFMPRP	-0.14
RRIRRRPPRLPRPRPRPKSDPRP	0.441
RRIRIRPPRLPRPRPRPIPRPRP	0.0123
RRIRRRPPRLPRPRPRPTDAPRP	0.198
RRIRMRPPRLPRPRPRPVRHPRP	0.237
RRIRHRPPRLPRPRPRPRCCPRP	-0.079
RRIRLRPPRLPRPRPRPECCPRP	0.338
RRIRLRPPRLPRPRPRPSHTPRP	-0.258
RRIRNRPPRLPRPRPRPYHIPRP	-0.366
RRIRMRPPRLPRPRPRPIRHPRP	0.017
RRIRCRPPRLPRPRPRPIYLPRP	-0.457
RRIRRRPPRLPRPRPRPMKDPRP	0.19
RRIRLRPPRLPRPRPRPRSAPRP	0.29
RRIRPRPPRLPRPRPRPYPYPRP	-0.124
RRIRIRPPRLPRPRPRPWKPPRP	-0.093
RRIRQRPPRLPRPRPRPWLPPRP	-0.181
RRIRQRPPRLPRPRPRPIKCPRP	-0.00607
RRIRYRPPRLPRPRPRPYDTPRP	-0.149
RRIRHRPPRLPRPRPRPGVHPRP	-0.9
RRIRHRPPRLPRPRPRPNACPRP	-0.0122

Sequence	shrunken log2 fold change
RRIRSRPPRLPRPRPRPMDPPRP	0.00928
RRIRLRPPRLPRPRPRPPCDPRP	-0.29
RRIRDRPPRLPRPRPRPHITPRP	-0.7
RRIRIRPPRLPRPRPRPCKTPRP	-0.168
RRIRFRPPRLPRPRPRPGIQPRP	-0.11
RRIRTRPPRLPRPRPRPLRNPRP	-0.0969
RRIRCRPPRLPRPRPRPNRDPRP	-0.167
RRIRDRPPRLPRPRPRPEQGPRP	0.0995
RRIRPRPPRLPRPRPRPRSDPRP	0.179
RRIRERPPRLPRPRPRPTALPRP	-0.415
RRIRIRPPRLPRPRPRPQDQPRP	-0.242
RRIRSRPPRLPRPRPRPDDFPRP	-0.151
RRIRMRPPRLPRPRPRPHDYPRP	1.54
RRIRIRPPRLPRPRPRPDLFPRP	-0.103
RRIRQRPPRLPRPRPRPPCAPRP	0.293
RRIRTRPPRLPRPRPRPWADPRP	0.015
RRIRNRPPRLPRPRPRPQQWPRP	-0.0346
RRIRQRPPRLPRPRPRPFKPPRP	-0.0337
RRIRDRPPRLPRPRPRPGVSPRP	0.158
RRIRWRPPRLPRPRPRPSVQPRP	0.128
RRIRSRPPRLPRPRPRPKGIPRP	-0.357
RRIRQRPPRLPRPRPRPAFWPRP	0.382
RRIRERPPRLPRPRPRPAVEPRP	0.108
RRIRGRPPRLPRPRPRPQCGPRP	0.601
RRIRVRPPRLPRPRPRPYGRPRP	-0.0856

Sequence	shrunken log2 fold change
RRIRQRPPRLPRPRPRPQKHPRP	-0.324
RRIRFRPPRLPRPRPRPISYPRP	-0.778
RRIRRRPPRLPRPRPRPDRPPRP	0.13
RRIRIRPPRLPRPRPRPGSLPRP	-0.475
RRIRHRPPRLPRPRPRPYGDPRP	-0.808
RRIRFRPPRLPRPRPRPLQCPRP	-0.293
RRIRFRPPRLPRPRPRPTIEPRP	-0.037
RRIRFRPPRLPRPRPRPWPGPRP	0.112
RRIRFRPPRLPRPRPRPCRHPRP	0.0121
RRIRFRPPRLPRPRPRPMAPPRP	0.114
RRIRGRPPRLPRPRPRPCDCPRP	-0.0193
RRIRLRPPRLPRPRPRPNALPRP	-0.0646
RRIRPRPPRLPRPRPRPRWSPRP	0.108
RRIRHRPPRLPRPRPRPLSFPRP	-0.137
RRIRVRPPRLPRPRPRPAELPRP	0.175
RRIRKRPPRLPRPRPRPPMYPRP	-0.0675
RRIRARPPRLPRPRPRPMVFPRP	0.508
RRIRNRPPRLPRPRPRPNHIPRP	-0.733
RRIRGRPPRLPRPRPRPACMPRP	0.671
RRIRERPPRLPRPRPRPRPGPRP	0.464
RRIRKRPPRLPRPRPRPYKEPRP	-0.417
RRIRARPPRLPRPRPRPFKRPRP	0.0331
RRIRTRPPRLPRPRPRPMVDPRP	-0.00822
RRIRARPPRLPRPRPRPPGRPRP	0.742
RRIRQRPPRLPRPRPRPIWPPRP	-0.0155
